Experimental findings from article doi:10.1101/2022.05.16.492121 (bioRxiv, 2022) are described below.

This data set concerns the molecule itself. Kind of data set: near-TIRF microscopy.

B1: Saccharomyces cerevisiae septin complex (Cdc3, Cdc10, Cdc11, Cdc12), polymerizable hetero-oligomer (complex)
chain 1: MSLKEEQVSIKQDPEQEERQHDQFNDVQIKQESQDHDGVDSQYTNGTQNDDSERFEAAESDVKVEPGLGMGITSSQSEKGQVLPDQPEIKFIRRQINGYVGFANLPKQWHRRSIKNGFSFNLLCVGPDGIGKTTLMKTLFNNDDIEANLVKDYEEELANDQEEEEGQGEGHENQSQEQRHKVKIKSYESVIEENGVKLNLNVIDTEGFGDFLNNDQKSWDPIIKEIDSRFDQYLDAENKINRHSINDKRIHACLYFIEPTGHYLKPLDLKFMQSVYEKCNLIPVIAKSDILTDEEILSFKKTIMNQLIQSNIELFKPPIYSNDDAENSHLSERLFSSLPYAVIGSNDIVENYSGNQVRGRSYPWGVIEVDNDNHSDFNLLKNLLIKQFMEELKERTSKILYENYRSSKLAKLGIKQDNSVFKEFDPISKQQEEKTLHEAKLAKLEIEMKTVFQQKVSEKEKKLQKSETELFARHKEMKEKLTKQLKALEDKKKQLELSINSASPNVNHSPVPTKKKGFLR
chain 2: MDPLSSVQPASYVGFDTITNQIEHRLLKKGFQFNIMVVGQSGLGKSTLINTLFASHLIDSATGDDISALPVTKTTEMKISTHTLVEDRVRLNINVIDTPGFGDFIDNSKAWEPIVKYIKEQHSQYLRKELTAQRERFITDTRVHAILYFLQPNGKELSRLDVEALKRLTEIANVIPVIGKSDTLTLDERTEFRELIQNEFEKYNFKIYPYDSEELTDEELELNRSVRSIIPFAVVGSENEIEINGETFRGRKTRWSAINVEDINQCDFVYLREFLIRTHLQDLIETTSYIHYEGFRARQLIALKENANSRSSAHMSSNAIQR
chain 3: MSGIIDASSALRKRKHLKRGITFTVMIVGQSGSGRSTFINTLCGQQVVDTSTTILLPTDTSTEIDLQLREETVELEDDEGVKIQLNIIDTPGFGDSLDNSPSFEIISDYIRHQYDEILLEESRVRRNPRFKDGRVHCCLYLINPTGHGLKEIDVEFIRQLGSLVNIIPVISKSDSLTRDELKLNKKLIMEDIDRWNLPIYNFPFDEDEISDEDYETNMYLRTLLPFAIIGSNEVYEMGGDVGTIRGRKYPWGILDVEDSSISDFVILRNALLISHLHDLKNYTHEILYERYRTEALSGESVAAESIRPNLTKLNGSSSSSTTTRRNTNPFKQSNNINNDVLNPASDMHGQSTGENNETYMTREEQIRLEEERLKAFEERVQQELLLKRQELLQREKELREIEARLEKEAKIKQEE
chain 4: MSAATATAAPVPPPVGISNLPNQRYKIVNEEGGTFTVMLCGESGLGKTTFINTLFQTVLKRADGQQHRQEPIRKTVEIDITRALLEEKHFELRVNVIDTPGFGDNVNNNKAWQPLVDFIDDQHDSYMRQEQQPYRTKKFDLRVHAVLYFIRPTGHGLKPIDIETMKRLSTRANLIPVIAKADTLTAQELQQFKSRIRQVIEAQEIRIFTPPLDADSKEDAKSGSNPDSAAVEHARQLIEAMPFAIVGSEKKFDNGQGTQVVARKYPWGLVEIENDSHCDFRKLRALLLRTYLLDLISTTQEMHYETYRRLRLEGHENTGEGNEDFTLPAIAPARKLSHNPRYKEEENALKKYFTDQVKAEEQRFRQWEQNIVNERIRLNGDLEEIQGKVKKLEEQVKSLQVKKSHLK
On to B1, for which the binding result is “binds”.
